Consider three compounds from article PMC9622777, “Eradication of tumors and development of anti-cancer immunity using STINGa targeted by pHLIP” (Frontiers in Oncology, 2022).

Where a SMILES comes first, the peptide text is derived from it. [ ]: non-standard residue; d: D form. The star is where a group is joined. X1 = CCn1nc(C)cc1C(=O)Nc1nc2cc(C(N)=O)cc(OC)c2n1C/C=C/Cn1c(NC(=O)c2cc(C)nn2CC)nc2cc(C(N)=O)cc(OCCC[N+]3(Cc4ccc(NC(=O)OCCS*)cc4)CCOCC3)c21

The nature of data set [1]: Stability in mouse plasma. It is filed as in vitro ADME. How it is done:
(§1) To establish the stability of pHLIP(Laa)-STINGa and pHLIP(Daa)-STINGa in plasma, pHLIP-STINGa was mixed with single donor human or BALB/c mouse plasma (Innovative Research) at a concentration of 200 μM, and kept in plasma for 0, 2, 4 or 24 hours at 37°C. Plasma proteins were precipitated by methanol (1:5 volume ratio of plasma to methanol) and centrifugated for 10 min at […]. The supernatant was collected and analyzed by HPLC using a Zorbax SB-C18 4.6 × 250 mm, 5 μm column with a gradient from 10% to 75% acetonitrile in water containing 0.05% TFA. Chromatograms were recorded at 220 nm, 280 nm and 320 nm. As controls pHLIP(Laa), pHLIP(Daa), Pys-PAB-STINGa, SH-PAB-STINGa, where Pys-PAB-STINGa was conjugated with a Cys residue, and diABZI (In vivogen) were analyzed for stability in plasma under the same conditions.

A short description of data set [2]: Stability in human plasma. The data set is classed as in vitro ADME. The protocol: as §1
Another data set deals with mouse plasma proteins. Kind of data set: Binding to mouse plasma proteins (plasma stability study). Conditions: BALB/c mouse plasma, 200 μM, 37°C, HPLC. The data set is classed as in vitro ADME. How it is done:
as §1

A further data set has as its system human plasma proteins. Kind of data set: Binding to human plasma proteins (plasma stability study). It is filed as in vitro ADME. The settings on record: for amount of product bound to plasma proteins (in brackets): single donor human plasma, 200 μM, 37°C, HPLC. The protocol:
as §1

In data set [3] the test system is tumor stroma and immune cells within CT26 tumors. Kind of data set: FACS analysis of uptake by tumor stroma and immune cells within CT26 tumors. The settings on record: mouse, in vivo, ip. The protocol: Animal studies on mice were conducted at the Charles River Discovery Service in compliance with the principles and procedures outlined by the National Institutes of Health for the care and use of animals. Uptake of Al647-pHLIP(Laa)-STINGa by tumor cells within CT26 tumors was analyzed by fluorescence activated cell sorting (FACS) analysis. […] When tumors reached 150-250 mm^3 in volume mice were separated into two groups. Eight mice from the treated group #1 received a single IP injection of Al647-pHLIP(Laa)-STINGa (300 µM 100 µl), and five mice from the control group #2 received single IP injection of vehicle (1% DMSO in PBS). 24 hours later all animals were euthanized, and tumors were collected for processing. Tumor stroma and immune cells were identified using the following markers:
• CD4 T cells: CD45^+, CD3^+, CD11b^-, CD4^+, CD8^- • CD8 T cells: CD45^+, CD3^+, CD11b^-, CD4^-, CD8^+ • Treg: CD45^+, CD3^+, CD11b^-, CD4^+, CD25^+, FoxP3^+ • mMDSC: CD45^+, CD3^-, CD11b^+, F4/80^-, Ly6C^high, Ly6G^- • gMDSC: CD45^+, CD3^-, CD11b^+, F4/80^-, Ly6C^low, Ly6G^+ • M1: CD45^+, CD11b^+, F4/80^+, CD206^- • M2: CD45^+, CD11b^+, F4/80^+, CD206^+ • DC: CD45^+, CD11b^+, CD11c^+, MHCII^+, F4/80^- • CAF: CD3^-, CD45^-, CD140b^+
The staining was performed for tumor samples, Fluorescence Minus One (FMO) controls and Single Color Controls (SCC) as indicated below:
The following anti-mouse antibodies were used: CD45-APC-Fire750 clone 30-F11, CD8a-BV650 clone 53-6.7, CD25-BV605 clone PC61, F4/80-PE-Dazzle-594 clone BM8, Ly-6C-FITC clone HK1.4, Ly-6G-BV785 clone 1A8, CD206-BV421 clone C068C2, CD140b-PE clone APB5, CD11c-BV711 clone N418, I-A/I-E-PE/Cy7 clone M5/114.15.2 from BioLegend; CD3e-BUV496 clone 145-2C11, CD4-BUV395 clone GK1.5; CD11b-BUV737 clone M1/70 from BD Biosciences, FoxP3 PerCP-Cy5.5 clone FJK-16s from Thermo Fisher and Live/Dead Aqua-V500 from Life Technologies. The procedure for tumor processing was the following: tumor samples were dissociated according to the manufacturer’s instructions using the gentleMACS™ protocol “Tumor Dissociation Kit”. Samples were filtered through a 70 µm cell strainer and rinsed twice in PBS/2.5% FBS buffer and total sample volumes were measured. Single cell suspensions were prepared in PBS pH 7.4 at 1x10^7 cells/mL and placed into individual wells of a 96-well plate and kept on ice. All incubation steps were carried out protected from light. The washing was performed by spinning the plate at 300x g (or 400x g) for 3 minutes and discarding the supernatant. Live/Dead reagent was added to each sample and incubated at 4°C for 15 minutes followed by washing. […]
A general note: Flow cytometry measures light scatter and fluorescence of single cells or particles in a stream.

For data set [4] the following is noted: mouse, in vivo, iv. The protocol: (§2) For pharmacokinetics (PK), biodistribution, pH imaging studies and immunohistochemistry, 5x10^4 of CT26 cancer cells were injected SQ in 100 µl of growth medium into the right flank of female Balb/c mice and tumors were grown until they reached 150-200 mm^3 in volume. […] Animals were euthanized at 2, 4, 24, 48, 72 and 96 hours post-injection, blood was collected in K2 EDTA vacutainer blood collection tubes (BD), and necropsy was performed immediately after euthanization. Blood, tumors and major organs (kidney, liver, spleen, pancreas, lung, heart, large and small intestines, bone, muscle, brain) were collected, and imaged ex vivo immediately after necropsy. Blood (150 µl) was imaged in 96-well plate with black bottom and walls. […] The fluorescence at zero-time point was taken as 100% and fluorescence recorded at 2, 4, 24 and 48 hrs p.i. were calculated as a percentage of zero-time point signal. […]
(§3) The in vivo and ex vivo bright field and near-infrared fluorescent imaging was performed using a Stryker 1588 AIM endoscopic system with L10 AIM Light Source (808 nm excitation and collection of light in the range of approximately of 815 to 850 nm), and a 1588 AIM Camera using a 10 mm scope. […] The calculated total fluorescence intensity and total area of each organ were used to calculate the mean organ fluorescence.

Another data set has as its system CT26 tumor. Conditions: mouse, in vivo. How it is done:
as §2, §3

`CCn1nc(C)cc1C(=O)Nc1nc2cc(C(N)=O)cc(OC)c2n1C/C=C/Cn1c(NC(=O)c2cc(C)nn2CC)nc2cc(C(N)=O)cc(OCCC[N+]3(Cc4ccc(NC(=O)OCCSSC[C@@H](NC(=O)[C@@H](Cc5c[nH]c6ccccc56)NC(=O)[C@@H](CC(C)C)NC(=O)[C@@H](CC(C)C)NC(=O)[C@@H](CC(=O)O)NC(=O)[C@@H](CC(C)C)NC(=O)[C@@H](CC(C)C)NC(=O)[C@@H](CC(C)C)NC(=O)[C@H](NC(=O)[C@@H](CC(=O)O)NC(=O)[C@H](NC(=O)[C@H]5CCCN5C(=O)[C@@H](Cc5ccccc5)NC(=O)[C@@H](CC(C)C)NC(=O)[C@@H](CC(C)C)NC(=O)[C@@H](CC(=O)O)NC(=O)[C@@H](CC(C)C)NC(=O)[C@@H](Cc5ccc(O)cc5)NC(=O)[C@@H](C)NC(=O)[C@@H](CCCNC(=N)N)NC(=O)[C@@H](Cc5c[nH]c6ccccc56)NC(=O)[C@H]5CCCN5C(=O)[C@@H](CC(N)=O)NC(=O)[C@@H](CC(=O)O)NC(=O)[C@@H](CCC(N)=O)NC(=O)[C@@H](CC(=O)O)NC(=O)[C@@H](C)N)[C@H](C)O)[C@H](C)O)C(=O)NCC(=O)O)cc4)CCOCC3)c21` [pHLIP(Daa)-STINGa] (H-[dA][dD][dQ][dD][dN][dP][dW][dR][dA][dY][dL][dD][dL][dL][dF][dP][dT][dD][dT][dL][dL][dL][dD][dL][dL][dW][dC](X1)G-OH; N-terminus and C-terminus assumed): the “amount of undegraded product (free fraction)” value is 99.4% in data set [1] (BALB/c mouse plasma, 200 μM, 37°C, 0 h, methanol precipitation, HPLC C18, UV 220/280/320 nm) and 99.4% in data set [2] (single donor human plasma, 200 μM, 37°C, 0 h, methanol precipitation, HPLC C18, UV). Moreover, the remaining at 2 h, 200 μM is 90.9% in data set [1] (BALB/c mouse plasma, 200 μM, 37°C, 2 h, methanol precipitation, HPLC C18, UV, read-out: amount of undegraded product (free fraction)) and 99.2% in data set [2] (single donor human plasma, 200 μM, 37°C, 2 h, methanol precipitation, HPLC C18, UV, read-out: amount of undegraded product (free fraction)). The remaining at 4 h, 200 μM stood at 84.5% in data set [1] (BALB/c mouse plasma, 200 μM, 37°C, 4 h, methanol precipitation, HPLC C18, UV, read-out: amount of undegraded product (free fraction)) and 97.6% in data set [2] (single donor human plasma, 200 μM, 37°C, 4 h, methanol precipitation, HPLC C18, UV, read-out: amount of undegraded product (free fraction)). Also, the remaining at 24 h, 200 μM turned out to be 58.2% in data set [1] (BALB/c mouse plasma, 200 μM, 37°C, 24 h, methanol precipitation, HPLC C18, UV, read-out: amount of undegraded product (free fraction)) and 89.6% in data set [2] (single donor human plasma, 200 μM, 37°C, 24 h, methanol precipitation, HPLC C18, UV, read-out: amount of undegraded product (free fraction)). Moreover, the “modified STINGa released from pHLIP” value in data set [1] (incubated with mouse plasma, 37°C (text summary of Table S1)) is recorded as “about 40%”. The metabolised at 24 h, 200 μM in data set [2] (human plasma, over 24 hours, 37°C (text summary of Table S1), read-out: degradation) was ~10%. Moreover, the “amount of product bound to plasma proteins (in brackets)” value in the data set on mouse plasma proteins (0 h) is 0%; with mouse plasma proteins (2 h), 51.7%; in the data set with mouse plasma proteins (4 h), 59.6%; in the data set with mouse plasma proteins (24 h), 75.9%; in the data set on human plasma proteins (0 h), 0%; in the data set with human plasma proteins (2 h), 77.2%. Besides, the “amount of product bound to plasma proteins (in brackets)” value came out at 84.4% in the data set on human plasma proteins (4 h) and 87.7% with human plasma proteins (24 h). Moreover, the “binding to plasma proteins, in words” value in the data set on human plasma proteins (compared with the Laa version, especially human plasma proteins) was “much stronger binding to plasma proteins than the Laa version”.

Take “AKDDQNPWRAYLDLLFPTDTLLLDLLWCG [Al647-pHLIP-STINGa]”: in data set [3], the “% of cells taken Al647-pHLIP-STINGa: CAFs” value is 74%, the “% of cells taken Al647-pHLIP-STINGa: CD8 T-cells” value amounted to 24%, the “% of cells taken Al647-pHLIP-STINGa: DCs” value is 52% and the “% of cells taken Al647-pHLIP-STINGa: TAMs (CD206+)” value is given as 71%.

“AKDDQNPWRAYLDLLFPTDTLLLDLLWCG [ICG-pHLIP-STINGa]”: in data set [4], the half-life in blood worked out at 8.2 h. Also, in the data set on CT26 tumor, the “persistence of fluorescence signal in the tumor” value was 8 days.
